Patent US20260092110A1 (Kyowa Kirin, published 2026)

Tests used:
[1] = target: T1, extracellular domain protein of rat MOG to which GST is added at the C-terminus (rMOG-GST) (rat); experiment: SPR Biacore T-100, antibody captured, rMOG-GST analyte; kd outside the measurement range
T1 construct: whole construct entry
Experimental: (§1) The antibodies were immobilized on CM5 sensor chips using a Human antibody Capture kit, and the binding abilities were evaluated using rMOG-GST produced in Example 4 as an analyte. The obtained sensorgrams were analyzed with BIA evaluation software, and the dissociation constants (KD values) were thus calculated.

[2] = target: T2, human MOG (hMOG) expressed on HEK293, Expi293F or L929 cells (human, UniProt Q16653 30-247); experiment: flow cytometry on HEK293 cells transiently expressing human MOG; antibody at 10 µg/mL, RPE-labelled goat anti-human antibody; negative control anti-AVM antibody
T2 construct: also called hMOG/HEK293; hMOG/HEK293F
T2 chain: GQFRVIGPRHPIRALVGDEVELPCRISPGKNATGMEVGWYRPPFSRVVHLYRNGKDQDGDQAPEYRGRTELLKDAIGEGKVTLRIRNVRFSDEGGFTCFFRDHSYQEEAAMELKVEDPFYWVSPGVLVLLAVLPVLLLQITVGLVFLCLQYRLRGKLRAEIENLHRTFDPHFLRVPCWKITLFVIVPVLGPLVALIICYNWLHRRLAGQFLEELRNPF
Experimental: (§2) rMOG/HEK293F, mMOG/IEK293F, cMOG/HEK293 and hMOG/HEK293 cells were suspended in a Staining Buffer (SB) of PBS containing 0.1% NaN₃ and 1% FBS each at a concentration of 5×10⁵ cells/mL and dispensed to a round-bottom 96-well plate (manufactured by Becton Dickinson).
(§3) After centrifugation (2000 rpm, 4° C., two minutes), the supernatants were removed, and the antibodies obtained in Example 6 at 10 μg/mL were added to the pellets. After suspending the pellets, the plate was left to stand at ice temperature for 30 minutes. The supernatants were removed after further centrifugation (2000 rpm, 4° C., two minutes), and the pellets were washed with SB. Then, 1 μg/mL RPE fluorescently labeled goat anti-human antibody (manufactured by […]) was added, and the plate was incubated at ice temperature for 30 minutes.
(§4) After washing with SB, the cells were suspended in SB, and the fluorescence intensities of the cells were measured using a flow cytometer FACS CANTO II (manufactured by Becton Dickinson). As the negative control, an anti-AVM antibody was used.

[3] = target: T3, rat MOG (rMOG) expressed on HEK293F cells (rat, UniProt Q63345 28-245); experiment: flow cytometry on HEK293 cells transiently expressing rat MOG; antibody at 10 µg/mL, RPE-labelled goat anti-human antibody; negative control anti-AVM antibody
T3 construct: also called rMOG/HEK293F
T3 sequence: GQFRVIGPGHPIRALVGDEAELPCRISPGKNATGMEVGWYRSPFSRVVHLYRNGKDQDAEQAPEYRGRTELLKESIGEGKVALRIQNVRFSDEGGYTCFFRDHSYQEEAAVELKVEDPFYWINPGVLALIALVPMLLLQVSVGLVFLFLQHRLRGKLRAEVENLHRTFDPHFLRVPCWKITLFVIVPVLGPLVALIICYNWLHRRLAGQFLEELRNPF
Experimental: as §2, §3, §4

[4] = target: T1, extracellular domain protein of rat MOG …; experiment: SPR Biacore T-100, antibody captured, rMOG-GST analyte
Experimental: as §1

[5] = target: T4, cynomolgus monkey MOG (cMOG) expressed on HEK293 cells (cynomolgus monkey, UniProt Q9BGS7 30-247); experiment: flow cytometry on HEK293 cells transiently expressing cynomolgus monkey MOG; antibody at 10 µg/mL, RPE-labelled goat anti-human antibody; negative control anti-AVM antibody
T4 construct: also called cMOG/HEK293
T4 sequence: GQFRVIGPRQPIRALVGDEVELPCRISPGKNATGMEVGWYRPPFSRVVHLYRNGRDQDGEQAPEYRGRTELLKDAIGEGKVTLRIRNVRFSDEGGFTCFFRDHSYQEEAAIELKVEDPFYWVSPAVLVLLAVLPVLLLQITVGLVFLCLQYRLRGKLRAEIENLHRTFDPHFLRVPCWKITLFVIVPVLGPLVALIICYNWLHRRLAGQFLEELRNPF
Experimental: as §2, §3, §4

[6] = target: T1, extracellular domain protein of rat MOG …; experiment: SPR Biacore T-100, antibody captured, rMOG-GST analyte; KD not unique (kd outside range)
Experimental: as §1

B1: MOG09 antibody (anti-MOG human IgG antibody expressed from N5LG4PE_MOG09) (antibody, V domains shown)
VH: QVQLQESGPGLVKSSETLSLTCAVSGHSISSAYYWGWIRQPPGKGLEWLGSIYHSGNTYYNPSLKSRVTISVDTSKNQFSLRLTSVTAADTAVYYCARGRGYSGYDSGMDVWGQGTTVTVSS
VL: SYVLTQPPSASGTPGQRVTISCSGTSSNIGINSVNWYQQLPGMAPKLVIYSRDQRPSGVPDRFSGSQSGTSASLAINGLQSEDEADYWCSTWDDSLNGWVFGGGTKLTVL
For B1, the koff [1] was 1.9e-07 s⁻¹, the binding result [2] was “binds” and the binding result [3] was “binds”. For the same binder, the kon [4] was 9000 M⁻¹ s⁻¹, the binding result [5] was “binds” and the Kd [6] was 0.021 nM.
